Laboratory results: patent US20120178701A1 (PALATIN TECHNOLOGIES, published 2012)
Bridge positions count the residues as written; N and C are the ends. Square brackets hold non-standard residues; d marks the D form. Aad = N[C@@H](CCCC(=O)O)C(=O)O; Orn = NCCC[C@H](N)C(=O)O; Dab = NCC[C@H](N)C(=O)O

Legend:
[1] = molecular target: T1, human recombinant melanocortin-1 receptor (human, UniProt Q01726 1-317); test: cell-based or functional assay
[2] = molecular target: T1, human recombinant melanocortin-1 …; test: competitive inhibition of labelled NDP-α-MSH, hMC1-R membranes
Method: (§1) A competitive inhibition binding assay is performed using membrane homogenates prepared from HEK-293 cells that express recombinant hMC4-R, hMC3-R, or hMC5-R, and from B-16 mouse melanoma cells (containing endogenous MC1-R). In some instances, HEK-293 cells that express recombinant hMC1-R were employed. In the examples that follow, all MC3-R, MC4-R and MC5-R values are for human recombinant receptors. […] Membrane homogenates were incubated with 0.2 nM (for hMC4-R) 0.4 nM (for MC3-R and MC5-R) or 0.1 nM (for mouse B16 MC1-R or hMC1-R) [I¹²⁵]-NDP-α-MSH (Perkin Elmer) and increasing concentrations of test peptides of the present invention in buffer containing 25 mM HEPES buffer (pH 7.5) with 100 mM NaCl, 2 mM CaCl₂, 2 mM MgCl₂, 0.3 mM 1,10-phenanthroline, and 0.2% bovine serum albumin. After incubation for 60 minutes at 37° C., the assay mixture was filtered and the membranes washed three times with ice-cold buffer. Filters were dried and counted in a gamma counter for bound radioactivity. […] Maximal specific binding (100%) was defined as the difference in radioactivity (cpm) bound to cell membranes in the absence and presence of 1 μM NDP-α-MSH. […] Each assay was conducted in triplicate and the actual mean values are described, with results less than 0% reported as 0%. Ki values for test peptides of the present invention were determined using Graph-Pad Prism® curve-fitting software.

[3] = molecular target: T2, human recombinant melanocortin-4 receptor (human, UniProt P32245 1-332); test: cell-based or functional assay
[4] = molecular target: T2, human recombinant melanocortin-4 …; test: ratio of Ki values, hMC1-R as reference
[5] = molecular target: T2, human recombinant melanocortin-4 …; test: competitive inhibition of [I125]-NDP-α-MSH, hMC4-R HEK-293 membranes
Method: as §1
(§2) 9.1 Peptides of the following structures were synthesized by the general methods described above, and averaged MC4-R Ki values for peptides were determined as indicated. […] Ki values marked “ND” were not determined.

[6] = molecular target: T2, human recombinant melanocortin-4 …; test: competitive inhibition of labelled NDP-α-MSH, hMC4-R membranes
[7] = molecular target: T2, human recombinant melanocortin-4 …; test: cell-based or functional assay; remark: listed apart in the source
[8] = molecular target: T2, human recombinant melanocortin-4 …; test: competitive inhibition of Eu-NDP-α-MSH (TRF), hMC4-R HEK-293 membranes
Method: After incubation for 90 minutes at 37° C., the reaction was stopped by filtration over AcroWell 96-well filter plates (Pall Life Sciences). The filter plates were washed 4 times with 200 μL of ice-cold phosphate-buffered saline. DELFIA Enhancement solution (PerkinElmer Life Sciences) was added to each well. The plates were incubated on a shaker for 15 minutes and read at 340 nm excitation and 615 nm emission wavelengths. Each assay was conducted in duplicate and mean values were utilized. Ki values were determined by curve-fitting with Graph-Pad Prism® software using a one-site fixed-slope competition binding model.
as §2

[9] = molecular target: T3, endogenous MC1-R of B-16 mouse melanoma cells (mouse, UniProt Q01727 1-315); test: competitive binding vs Eu-labeled NDP-α-MSH
T3 construct: whole, on cells; membrane homogenates; also called mouse B16 MC1-R

[10] = molecular target: T4, human recombinant melanocortin-3 receptor (human, UniProt P41968 1-323); test: competitive binding vs Eu-labeled NDP-α-MSH
T4 construct: whole, on cells; Membrane homogenates of HEK-293 cells expressing the receptor; also called hMC3-R; MC3-R

[11] = molecular target: T3, endogenous MC1-R of B-16 mouse melanoma …; test: competitive binding vs [I125]-NDP-α-MSH
Method: (§3) After incubation for 60 minutes at 37° C., the assay mixture was filtered and the membranes washed three times with ice-cold buffer. Filters were dried and counted in a gamma counter for bound radioactivity. […] Maximal specific binding (100%) was defined as the difference in radioactivity (cpm) bound to cell membranes in the absence and presence of 1 μM NDP-α-MSH. […] Each assay was conducted in triplicate and the actual mean values are described, with results less than 0% reported as 0%. Ki values for test peptides of the present invention were determined using Graph-Pad Prism® curve-fitting software.

[12] = molecular target: T4, human recombinant melanocortin-3 …; test: competitive binding vs [I125]-NDP-α-MSH
Method: as §3

T1 sequence (Q01726 whole entry): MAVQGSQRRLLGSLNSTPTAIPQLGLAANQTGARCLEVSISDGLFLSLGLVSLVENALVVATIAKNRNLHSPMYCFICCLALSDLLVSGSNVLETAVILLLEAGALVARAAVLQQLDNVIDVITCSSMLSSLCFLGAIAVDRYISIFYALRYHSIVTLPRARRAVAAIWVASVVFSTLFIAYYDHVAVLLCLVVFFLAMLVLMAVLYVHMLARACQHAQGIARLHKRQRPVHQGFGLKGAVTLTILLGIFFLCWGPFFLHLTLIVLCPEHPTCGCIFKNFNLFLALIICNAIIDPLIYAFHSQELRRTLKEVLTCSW
T3 sequence (Q01727 whole entry): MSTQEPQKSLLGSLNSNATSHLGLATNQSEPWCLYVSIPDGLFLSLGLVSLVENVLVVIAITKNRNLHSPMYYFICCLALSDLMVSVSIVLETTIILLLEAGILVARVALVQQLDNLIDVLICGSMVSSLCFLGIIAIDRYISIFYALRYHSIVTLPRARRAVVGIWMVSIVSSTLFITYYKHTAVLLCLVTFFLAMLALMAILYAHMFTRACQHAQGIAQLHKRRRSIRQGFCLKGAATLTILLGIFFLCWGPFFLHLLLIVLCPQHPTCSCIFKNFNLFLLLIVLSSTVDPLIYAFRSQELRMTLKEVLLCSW
T2 sequence (P32245 whole entry): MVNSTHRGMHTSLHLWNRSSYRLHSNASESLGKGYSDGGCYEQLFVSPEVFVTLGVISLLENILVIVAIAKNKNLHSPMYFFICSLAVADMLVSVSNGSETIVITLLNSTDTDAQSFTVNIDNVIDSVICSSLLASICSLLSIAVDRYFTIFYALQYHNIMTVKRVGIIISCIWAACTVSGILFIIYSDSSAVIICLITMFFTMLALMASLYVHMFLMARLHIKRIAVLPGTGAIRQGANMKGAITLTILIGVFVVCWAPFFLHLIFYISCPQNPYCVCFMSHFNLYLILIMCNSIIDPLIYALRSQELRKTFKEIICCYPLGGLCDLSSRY
T4 sequence (P41968 whole entry): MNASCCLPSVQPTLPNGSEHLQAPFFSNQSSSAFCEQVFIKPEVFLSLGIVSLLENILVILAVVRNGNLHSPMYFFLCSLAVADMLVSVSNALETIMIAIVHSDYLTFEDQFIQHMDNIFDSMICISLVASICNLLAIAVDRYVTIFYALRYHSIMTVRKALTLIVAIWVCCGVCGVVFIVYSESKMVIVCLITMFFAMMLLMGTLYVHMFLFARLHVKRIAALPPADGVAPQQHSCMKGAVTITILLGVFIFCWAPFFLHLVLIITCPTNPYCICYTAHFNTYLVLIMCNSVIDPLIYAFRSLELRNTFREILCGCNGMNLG

Row | hMC1-R EC50 [1] | Ki [2] | hMC1-R Emax (%) [1] | hMC4-R Emax (%) [3] | hMC4-R EC50 [3] | Ki [5] | Ki [6] | Binder | other results
1 | 25 nM | 688 nM |  |  |  |  |  | Ac-R[Orn]N[dF]RWE-NH2 (lactam 2-7, also called peptide No. 154) [Ac-Arg-cyclo(Orn-Asn-D-Phe-Arg-Trp-Glu)-NH2] | 
2 | 80 nM | 840 nM | 81% |  |  |  |  | Ac-[dR][Orn]N[dF]RWE-NH2 (lactam 2-7, also called peptide No. 156) [Ac-D-Arg-cyclo(Orn-Asn-D-Phe-Arg-Trp-Glu)-NH2] | 
3 |  |  | 89% |  |  |  |  | Ac-R[Orn]Q[dF]RWE-NH2 (lactam 2-7) [Ac-Arg-cyclo(Orn-Gln-D-Phe-Arg-Trp-Glu)-NH2] | 
4 |  |  | 85% | 89% |  |  |  | Ac-[dR][Orn]Q[dF]RWE-NH2 (lactam 2-7) [Ac-D-Arg-cyclo(Orn-Gln-D-Phe-Arg-Trp-Glu)-NH2] | 
5 | 22 nM | 255 nM | 89% | 82% | 0.85 nM | 5 nM | 5 nM | RKNFRXD (HELM PEPTIDE1{[ac].R.K.N.[dF].R.[O=C([C@H](Cc1ccc2ccccc2c1)N[*:1])[*:2]].D.[am]}$PEPTIDE1,PEPTIDE1,3:R3-8:R3$$$V2.0; SMILES CC(=O)N[C@@H](CCCNC(=N)N)C(=O)N[C@H]1CCCCNC(=O)C[C@@H](C(N)=O)NC(=O)[C@H](Cc2ccc3ccccc3c2)NC(=O)[C@H](CCCNC(=N)N)NC(=O)[C@@H](Cc2ccccc2)NC(=O)[C@H](CC(N)=O)NC1=O, also called peptide No. 162) [Ac-Arg-cyclo(Lys-Asn-D-Phe-Arg-Nal 2-Asp)-NH2] | binding selectivity, MC4-R against MC1-R [4]: ≥ 20 fold
6 |  | 295 nM |  | 98% | 0.245 nM | 8 nM | 8 nM | Ac-R[Aad]N[dF]RW[Dab]-NH2 (lactam 2-7, also called peptide No. 160) [Ac-Arg-cyclo(hGlu-Asn-D-Phe-Arg-Trp-Dab)-NH2] | 
7 |  |  | 88% | 89% | 2 nM | 45 nM | 45 nM | Ac-[dR]DQ[dF]RWK-NH2 (lactam 2-7, also called peptide No. 71) [Ac-D-Arg-cyclo(Asp-Gln-D-Phe-Arg-Trp-Lys)-NH2] | 
8 | 14 nM | 240 nM | 91% | 97% | 0.189 nM | 5 nM | 5 nM | Ac-RKN[dF]RWD-NH2 (lactam 2-7) [Ac-Arg-cyclo(Lys-Asn-D-Phe-Arg-Trp-Asp)-NH2] | binding selectivity, MC4-R against MC1-R [4]: ≥ 20 fold

The next lines start with the binder.

Row | Binder | hMC1-R EC50 [1] | Ki [2] | hMC1-R Emax (%) [1] | hMC4-R Emax (%) [3] | hMC4-R EC50 [3] | Ki [5] | Ki [6] | other results
9 | Ac-R[Dab]H[dF]RW[Aad]-NH2 (lactam 2-7) [Ac-Arg-cyclo(Dab-His-D-Phe-Arg-Trp-hGlu)-NH2] |  |  |  |  |  |  |  | intrinsic activity (cAMP; NDP-α-MSH = 100%) [7]: 95%
10 | Ac-REN[dF]RW[Orn]-NH2 (lactam 2-7, also called peptide No. 161) [Ac-Arg-cyclo(Glu-Asn-D-Phe-Arg-Trp-Orn)-NH2] | 13 nM | 155 nM | 85% | 91% | 0.413 nM | 6 nM | 6 nM | binding selectivity, MC4-R against MC1-R [4]: ≥ 20 fold
11 | Ac-RD[Pro(4R-2-Cl-Bzl)][dF]RWK-NH2 (lactam 2-7, also called peptide No. 123) [Ac-Arg-cyclo(Asp-Pro(4R-2-Cl-Bzl)-D-Phe-Arg-Trp-Lys)-NH2] |  |  |  |  |  |  |  | Ki [8]: 8 nM
12 | Ac-RDH[dF]RWK-NH2 (lactam 2-7, also called peptide No. 1) [Ac-Arg-cyclo(Asp-His-D-Phe-Arg-Trp-Lys)-NH2] |  |  |  |  |  |  |  | intrinsic activity (cAMP; NDP-α-MSH = 100%) [7]: 91%; Ki [9]: 4 nM; Ki [10]: 103 nM; Ki [11]: 3 nM
13 | Ac-RDQ[dF]RWK-NH2 (lactam 2-7, any difference is only in the drawings; also called peptide No. 32) [Ac-Arg-cyclo(Asp-Gln-D-Phe-Arg-Trp-Lys)-NH2] |  |  |  |  |  |  |  | EC50 (cAMP) [7]: 17 nM; intrinsic activity (cAMP; NDP-α-MSH = 100%) [7]: 98%; Ki [9]: 673 nM; Ki [11]: 133 nM; Ki [12]: 340 nM
14 | RXQFRWX (N-acetyl; X2 = Dab; D-Phe 4; X7 = hGlu; side-chain lactam Dab2-hGlu7; C-terminal amide, also called peptide No. 159) [Ac-Arg-cyclo(Dab-Gln-D-Phe-Arg-Trp-hGlu)-NH2] | 26 nM | 133 nM | 98% | 99% | 0.825 nM | 4 nM | 4 nM | binding selectivity, MC4-R against MC1-R [4]: ≥ 20 fold
15 | Ac-RD[Pro(4R-3-Cl-Bzl)][dF]RWK-NH2 (lactam 2-7, also called peptide No. 124) [Ac-Arg-cyclo(Asp-Pro(4R-3-Cl-Bzl)-D-Phe-Arg-Trp-Lys)-NH2] |  |  |  |  |  |  |  | Ki [8]: 19 nM
16 | Ac-RDV[dF]RWK-NH2 (lactam 2-7, also called peptide No. 16) [Ac-Arg-cyclo(Asp-Val-D-Phe-Arg-Trp-Lys)-NH2] |  |  |  |  |  |  |  | intrinsic activity (cAMP; NDP-α-MSH = 100%) [7]: 42%; Ki [9]: 323 nM; Ki [10]: 1060 nM
